For assay [1], the target named is reconstituted nascent HDL (rHDL) particle made with isolated human apoA-I (human) (UniProt P02647). The assay is described as follows: SPR (BIAcore 3000), rHDL immobilized on CM5 chip, apparent Kd, 1:1 binding with drifting baseline. On the technique in general: Surface plasmon resonance follows binding to a sensor surface in real time, without labels.
For assay [2] the target is unchanged. As to the kind of experiment: SPR (BIAcore 3000), rHDL immobilized on CM5 chip, rPON1 500-2000 nM in flow.
The target is the same in assay [3]. The assay is described as follows: SPR, rHDL immobilized on CM5 chip.

For orientation: koff means the first-order rate constant of dissociation. A lower koff goes with a long-lived complex. The kon is a measure of how fast the partners come together.

Sequence of reconstituted nascent HDL (rHDL) particle made with isolated human apoA-I (human) (P02647 25-267 limits assumed): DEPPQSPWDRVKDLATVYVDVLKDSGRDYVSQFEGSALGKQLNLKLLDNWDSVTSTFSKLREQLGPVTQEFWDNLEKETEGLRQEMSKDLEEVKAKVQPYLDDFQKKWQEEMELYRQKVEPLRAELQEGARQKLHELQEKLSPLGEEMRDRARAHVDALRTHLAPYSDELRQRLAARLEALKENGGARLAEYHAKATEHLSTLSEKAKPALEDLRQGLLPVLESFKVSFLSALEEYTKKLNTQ

“recombinant paraoxonase 1 (PON1) variant G3C9, His-tagged (rPON1 WT) (enzyme)”: the Kd in assay [1] was determined as 0.00071 µM. Besides, in assay [2], the koff stood at 8.5e-07 s⁻¹ and the kon was found to be 1200 M⁻¹ s⁻¹.
On to “rPON1 pan K mutant (Leu9→Lys9, Tyr185→Lys185 and Tyr293→Lys293) with C-terminal His8 tag (enzyme)”, for which the off-rate constant (koff) in assay [2] turned out to be 6e-05 s⁻¹. Further, the fold less binding capacity compared with rPON1 WT in assay [3] is 1000 fold.
In the case of “rPON1 pan E mutant (Leu9→Glu9, Tyr185→Glu185 and Tyr293→Glu293) with C-terminal His8 tag (enzyme)”, in assay [1], the Kd worked out at 59 µM. Also, in assay [2], the koff was found to be 0.05 s⁻¹ and the kon was 850 M⁻¹ s⁻¹.

For the origin of these results see US20170115280A1.
